Test results as given in patent publication US20250346644A1 (LATTICON SUZHOU BIOPHARMACEUTICALS, published 2025).

target: T1, hIL2-DM-his (human, UniProt P60568 21-153); test: BLI ForteBio, Ab on Protein A sensor
T1 construct: expressed in ExpiCHO-S cells, nickel-column purified; also called hIL-2 mutein containing two point mutations K64G and N90R (with a his-tag); not shown: his-tag
T1 sequence (P60568 21-153 K84G/N110R): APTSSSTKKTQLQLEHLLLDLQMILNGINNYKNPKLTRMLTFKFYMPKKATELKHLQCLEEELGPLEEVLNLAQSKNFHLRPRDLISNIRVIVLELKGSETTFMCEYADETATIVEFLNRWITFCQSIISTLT

Binder	binding result
hS4B6-H6K3-hu01 (antibody, V domains shown, H6K3 with heavy chain D27Y) VH: QVQLVQSGAEVKKPGATVKISCKVSGYTITAYYLHWVRQAPGQGLEWIGRIDPEDDSTKYAENFKNRVTITADTSTNTAYMELSSLRSEDTAVYYCTTVTFYYSRELRWFAYWGQGTLVTVSS VL: DIVLTQSPATLSLSPGERATLSCQASQDIGNYLSWYQQKPGQAPRLLIYSATSLADGIPARFSGSRSGTDYTLTISSLEPEDFAVYYCLQHYSTPYTFGQGTKLEIK	no binding (tested: 100 nM (highest antigen concentration))

target: T1, hIL2-DM-his; test: BLI ForteBio, Ab on Protein A sensor; remark: another data set of the same source
Procedure: After each cycle of association and dissociation steps, the sensor was regenerated by 10 mM glycine buffer (pH 1.5) and then stated with the next cycle of detection. After the detection, the association rate constant and dissociation rate constant between the antibody and antigen were fitted and extrapolated using the analytical software, and the value of affinity constant (KD) was calculated.

Binder	Kd [nM]	koff [s⁻¹]	kon [M⁻¹ s⁻¹]
K3G3 (antibody, V domains shown) VH: QVQLVQSGAEVKKPGATVKISCKVSGDTITAYYMHWVRQAPGQGLEWIGRIDPDDDSTKYAENFKGRVTITADTSTDTAYMELSSLRSEDTAVYYCTTVTFYYSRELRWFAYWGQGTLVTVSS VL: DIVLTQSPATLSLSPGERATLSCQASQYIGNYLSWYQQKPGQAPRLLIYQATSLASGIPARFSGSRSGTDFTLTISSLEPEDFAVYYCLQHYSTPYTFGQGTKLEIK	3.34	0.00134	400000
K3G5 (antibody, V domains shown) VH: QVQLVQSGAEVKKPGATVKISCKVSGDTITAYYMHWVRQAPGQGLEWIGRIDPEDDSTKYAENFKGRVTITADTSTDTAYMELSSLRSEDTAVYYCTTVTFYYTRELRWFAYWGQGTLVTVSS VL: DIVLTQSPATLSLSPGERATLSCQASQYIGNYLSWYQQKPGQAPRLLIYQATSLASGIPARFSGSRSGTDFTLTISSLEPEDFAVYYCLQHYSTPYTFGQGTKLEIK	3.72	0.00124	334000
K4G8 (antibody, V domains shown) VH: QVQLVQSGAEVKKPGATVKISCKVSGDTITAYYMHWVRQAPGQGLEWIGRIDPEDDSTKYAENFKGRVTITADTSTDTAYMELSSLRSEDTAVYYCTTITFLYSRELRWFAYWGQGTLVTVSS VL: DIVLTQSPATLSLSPGERATLSCQASQYIGNYLSWYQQKPGQAPRLLIYSATSLASGIPARFSGSRSGTDFTLTISSLEPEDFAVYYCLQHYSTPYTFGQGTKLEIK	2.49	0.000856	344000
K4G10 (antibody, V domains shown) VH: QVQLVQSGAEVKKPGATVKISCKVSGDTITAYYMHWVRQAPGQGLEWIGRIDPDDDSTKYAENFKGRVTITADTSTDTAYMELSSLRSEDTAVYYCTTITFYYTRELRWFAYWGQGTLVTVSS VL: DIVLTQSPATLSLSPGERATLSCQASQYIGNYLSWYQQKPGQAPRLLIYSATSLASGIPARFSGSRSGTDFTLTISSLEPEDFAVYYCLQHYSTPYTFGQGTKLEIK	2.47	0.000907	367000
K4G3 (antibody, V domains shown) VH: QVQLVQSGAEVKKPGATVKISCKVSGDTITAYYMHWVRQAPGQGLEWIGRIDPDDDSTKYAENFKGRVTITADTSTDTAYMELSSLRSEDTAVYYCTTVTFYYSRELRWFAYWGQGTLVTVSS VL: DIVLTQSPATLSLSPGERATLSCQASQYIGNYLSWYQQKPGQAPRLLIYSATSLASGIPARFSGSRSGTDFTLTISSLEPEDFAVYYCLQHYSTPYTFGQGTKLEIK	3.08	0.00108	351000
K4G1 (antibody, V domains shown) VH: QVQLVQSGAEVKKPGATVKISCKVSGDTITAYYMHWVRQAPGQGLEWIGRIDPEDDSTKYAENFKGRVTITADTSTDTAYMELSSLRSEDTAVYYCTTVTFYYSRELRWFAYWGQGTLVTVSS VL: DIVLTQSPATLSLSPGERATLSCQASQYIGNYLSWYQQKPGQAPRLLIYSATSLASGIPARFSGSRSGTDFTLTISSLEPEDFAVYYCLQHYSTPYTFGQGTKLEIK	4.28	0.00151	352000
K3G8 (antibody, V domains shown) VH: QVQLVQSGAEVKKPGATVKISCKVSGDTITAYYMHWVRQAPGQGLEWIGRIDPEDDSTKYAENFKGRVTITADTSTDTAYMELSSLRSEDTAVYYCTTITFLYSRELRWFAYWGQGTLVTVSS VL: DIVLTQSPATLSLSPGERATLSCQASQYIGNYLSWYQQKPGQAPRLLIYQATSLASGIPARFSGSRSGTDFTLTISSLEPEDFAVYYCLQHYSTPYTFGQGTKLEIK	1.5	0.000446	297000
K4G2 (antibody, V domains shown) VH: QVQLVQSGAEVKKPGATVKISCKVSGDTITAYYMHWVRQAPGQGLEWIGRIDPEDDSTKYAENFKGRVTITADTSTDTAYMELSSLRSEDTAVYYCTTITFYYSRELRWFAYWGQGTLVTVSS VL: DIVLTQSPATLSLSPGERATLSCQASQYIGNYLSWYQQKPGQAPRLLIYSATSLASGIPARFSGSRSGTDFTLTISSLEPEDFAVYYCLQHYSTPYTFGQGTKLEIK	3.72	0.00143	384000
K3G9 (antibody, V domains shown) VH: QVQLVQSGAEVKKPGATVKISCKVSGDTITAYYMHWVRQAPGQGLEWIGRIDPEDDSTKYAENFKGRVTITADTSTDTAYMELSSLRSEDTAVYYCTTITFLYTRELRWFAYWGQGTLVTVSS VL: DIVLTQSPATLSLSPGERATLSCQASQYIGNYLSWYQQKPGQAPRLLIYQATSLASGIPARFSGSRSGTDFTLTISSLEPEDFAVYYCLQHYSTPYTFGQGTKLEIK	1.49	0.000529	356000
K4G6 (antibody, V domains shown) VH: QVQLVQSGAEVKKPGATVKISCKVSGDTITAYYMHWVRQAPGQGLEWIGRIDPDDDSTKYAENFKGRVTITADTSTDTAYMELSSLRSEDTAVYYCTTITFYYSRELRWFAYWGQGTLVTVSS VL: DIVLTQSPATLSLSPGERATLSCQASQYIGNYLSWYQQKPGQAPRLLIYSATSLASGIPARFSGSRSGTDFTLTISSLEPEDFAVYYCLQHYSTPYTFGQGTKLEIK	2.33	0.000994	426000
K4G4 (antibody, V domains shown) VH: QVQLVQSGAEVKKPGATVKISCKVSGDTITAYYMHWVRQAPGQGLEWIGRIDPEDDSTKYAENFKGRVTITADTSTDTAYMELSSLRSEDTAVYYCTTVTFLYSRELRWFAYWGQGTLVTVSS VL: DIVLTQSPATLSLSPGERATLSCQASQYIGNYLSWYQQKPGQAPRLLIYSATSLASGIPARFSGSRSGTDFTLTISSLEPEDFAVYYCLQHYSTPYTFGQGTKLEIK	2.25	0.00082	364000
K4G5 (antibody, V domains shown) VH: QVQLVQSGAEVKKPGATVKISCKVSGDTITAYYMHWVRQAPGQGLEWIGRIDPEDDSTKYAENFKGRVTITADTSTDTAYMELSSLRSEDTAVYYCTTVTFYYTRELRWFAYWGQGTLVTVSS VL: DIVLTQSPATLSLSPGERATLSCQASQYIGNYLSWYQQKPGQAPRLLIYSATSLASGIPARFSGSRSGTDFTLTISSLEPEDFAVYYCLQHYSTPYTFGQGTKLEIK	2.7	0.00113	418000

Continued, values first:

Kd [nM]	koff [s⁻¹]	kon [M⁻¹ s⁻¹]	Binder
1.96	0.000656	336000	K3G7 (antibody, V domains shown) VH: QVQLVQSGAEVKKPGATVKISCKVSGDTITAYYMHWVRQAPGQGLEWIGRIDPEDDSTKYAENFKGRVTITADTSTDTAYMELSSLRSEDTAVYYCTTITFYYTRELRWFAYWGQGTLVTVSS VL: DIVLTQSPATLSLSPGERATLSCQASQYIGNYLSWYQQKPGQAPRLLIYQATSLASGIPARFSGSRSGTDFTLTISSLEPEDFAVYYCLQHYSTPYTFGQGTKLEIK
1.46	0.000585	402000	K3G10 (antibody, V domains shown) VH: QVQLVQSGAEVKKPGATVKISCKVSGDTITAYYMHWVRQAPGQGLEWIGRIDPDDDSTKYAENFKGRVTITADTSTDTAYMELSSLRSEDTAVYYCTTITFYYTRELRWFAYWGQGTLVTVSS VL: DIVLTQSPATLSLSPGERATLSCQASQYIGNYLSWYQQKPGQAPRLLIYQATSLASGIPARFSGSRSGTDFTLTISSLEPEDFAVYYCLQHYSTPYTFGQGTKLEIK
2.13	0.000844	397000	K3G6 (antibody, V domains shown) VH: QVQLVQSGAEVKKPGATVKISCKVSGDTITAYYMHWVRQAPGQGLEWIGRIDPDDDSTKYAENFKGRVTITADTSTDTAYMELSSLRSEDTAVYYCTTITFYYSRELRWFAYWGQGTLVTVSS VL: DIVLTQSPATLSLSPGERATLSCQASQYIGNYLSWYQQKPGQAPRLLIYQATSLASGIPARFSGSRSGTDFTLTISSLEPEDFAVYYCLQHYSTPYTFGQGTKLEIK
3.2	0.00127	396000	K4G7 (antibody, V domains shown) VH: QVQLVQSGAEVKKPGATVKISCKVSGDTITAYYMHWVRQAPGQGLEWIGRIDPEDDSTKYAENFKGRVTITADTSTDTAYMELSSLRSEDTAVYYCTTITFYYTRELRWFAYWGQGTLVTVSS VL: DIVLTQSPATLSLSPGERATLSCQASQYIGNYLSWYQQKPGQAPRLLIYSATSLASGIPARFSGSRSGTDFTLTISSLEPEDFAVYYCLQHYSTPYTFGQGTKLEIK
3	0.00122	408000	K3G4 (antibody, V domains shown) VH: QVQLVQSGAEVKKPGATVKISCKVSGDTITAYYMHWVRQAPGQGLEWIGRIDPEDDSTKYAENFKGRVTITADTSTDTAYMELSSLRSEDTAVYYCTTVTFLYSRELRWFAYWGQGTLVTVSS VL: DIVLTQSPATLSLSPGERATLSCQASQYIGNYLSWYQQKPGQAPRLLIYQATSLASGIPARFSGSRSGTDFTLTISSLEPEDFAVYYCLQHYSTPYTFGQGTKLEIK
0.686	0.000326	476000	K4G12 (antibody, V domains shown) VH: QVQLVQSGAEVKKPGATVKISCKVSGDTITAYYMHWVRQAPGQGLEWIGRIDPDDDSTKYAENFKGRVTITADTSTDTAYMELSSLRSEDTAVYYCTTITFLYTRELRWFAYWGQGTLVTVSS VL: DIVLTQSPATLSLSPGERATLSCQASQYIGNYLSWYQQKPGQAPRLLIYSATSLASGIPARFSGSRSGTDFTLTISSLEPEDFAVYYCLQHYSTPYTFGQGTKLEIK
